B1: Rad26 (wild type) (enzyme, S. cerevisiae)
chain: MEDKEQQDNAKLENNESLKDLGVNVLSQSSLEEKIANDVTNFSNLQSLQQEETRLERSKTALQRYVNKKNHLTRKLNNTTRISVKQNLRDQIKNLQSDDIERVLKDIDDIQSRIKELKEQVDQGAENKGSKEGLQRPGETEKEFLIRTGKITAFGHKAGFSLDTANREYAKNDEQKDEDFEMATEQMVENLTDEDDNLSDQDYQMSGKESEDDEEEENDDKILKELEDLRFRGQPGEAKDDGDELYYQERLKKWVKQRSCGSQRSSDLPEWRRPHPNIPDAKLNSQFKIPGEIYSLLFNYQKTCVQWLYELYQQNCGGIIGDEMGLGKTIQVIAFIAALHHSGLLTGPVLIVCPATVMKQWCNEFQHWWPPLRTVILHSMGSGMASDQKFKMDENDLENLIMNSKPSDFSYEDWKNSTRTKKALESSYHLDKLIDKVVTDGHILITTYVGLRIHSDKLLKVKWQYAVLDEGHKIRNPDSEISLTCKKLKTHNRIILSGTPIQNNLTELWSLFDFIFPGKLGTLPVFQQQFVIPINIGGYANATNIQVQTGYKCAVALRDLISPYLLRRVKADVAKDLPQKKEMVLFCKLTKYQRSKYLEFLHSSDLNQIQNGKRNVLFGIDILRKICNHPDLLDRDTKRHNPDYGDPKRSGKMQVVKQLLLLWHKQGYKALLFTQSRQMLDILEEFISTKDPDLSHLNYLRMDGTTNIKGRQSLVDRFNNESFDVFLLTTRVGGLGVNLTGANRIIIFDPDWNPSTDMQARERAWRIGQKREVSIYRLMVGGSIEEKIYHRQIFKQFLTNRILTDPKQKRFFKIHELHDLFSLGGENGYSTEELNEEVQKHTENLKNSKSEESDDFEQLVNLSGVSKLESFYNGKEKKENSKTEDDRLIEGLLGGESNLETVMSHDSVVNSHAGSSSSNIITKEASRVAIEAVNALRKSRKKITKQYEIGTPTWTGRFGKAGKIRKRDPLKNKLTGSAAILGNITKSQKEASKEARQENYDDGITFARSKEINSNTKTLENIRAYLQKQNNFFSSSVSILNSIGVSLSDKEDVIKVRALLKTIAQFDKERKGWVLDEEFRNNNAS
notes: Rad26, S. cerevisiae ortholog of human CSB, Swi2/Snf2 family ATPase; also called Rad26(WT); yeast ortholog of CSB; source: E. coli Rosetta 2(DE3), purified (Ni-NTA agarose, Hi-Trap Heparin HP, Superdex 200)
B2: Rpb4/7 heterodimer of S. cerevisiae RNA polymerase II (complex)
chain 1: MNVSTSTFQTRRRRLKKVEEEENAATLQLGQEFQLKQINHQGEEEELIALNLSEARLVIKEALVERRRAFKRSQKKHKKKHLKHENANDETTAVEDEDDDLDEDDVNADDDDFMHSETREKELESIDVLLEQTTGGNNKDLKNTMQYLTNFSRFRDQETVGAVIQLLKSTGLHPFEVAQLGSLACDTADEAKTLIPSLNNKISDDELERILKELSNLETLY
chain 2: MFFIKDLSLNITLHPSFFGPRMKQYLKTKLLEEVEGSCTGKFGYILCVLDYDNIDIQRGRILPTDGSAEFNVKYRAVVFKPFKGEVVDGTVVSCSQHGFEVQVGPMKVFVTKHLMPQDLTFNAGSNPPSYQSSEDVITIKSRIRVKIEGCISQVSSIHAIGSIKEDYLGAI
notes: Rpb4 subunit of S. cerevisiae RNA polymerase II; Rpb7 subunit of S. cerevisiae RNA polymerase II; In the structures it stood assembled into 12-subunit Pol II; also called Pol II stalk

Columns and labels:
[1] = molecular target: S. cerevisiae 12-subunit RNA polymerase II (S. cerevisiae) (UniProt P04050); assay: mass photometry; 12-subunit CPD-arrested Pol II complex (EC, on DNA/RNA scaffold) mixed with an equimolar amount of Rad26, diluted to 2, 5, 15 and 20 nM, with additional Elf1 (final 500 nM), incubated 20 min; Kd from particle counts, 12 reads
[2] = molecular target: S. cerevisiae 12-subunit RNA polymerase II (S. cerevisiae) (UniProt P04050); assay: mass photometry; 12-subunit CPD-arrested Pol II complex (EC, on DNA/RNA scaffold) mixed with an equimolar amount of Rad26, diluted to 5, 10, 15 and 25 nM, incubated 20 min; no Elf1; Kd from particle counts, 12 reads
[3] = molecular target: T1, Rpb2 subunit of S. cerevisiae RNA polymerase II (S. cerevisiae, UniProt P08518 1-1224); assay: cryo-EM structure; Pol II(CPD)-Rad26 with 10-subunit Pol II lacking Rpb4/7, CPD lesion scaffold; 4.7 A; settings: both partners purified
T1 construct: Rpb2, second largest subunit of S. cerevisiae RNA polymerase II, within the assembled polymerase; Seen only as a subunit of Pol II in the structures
T1 sequence (P08518 whole entry): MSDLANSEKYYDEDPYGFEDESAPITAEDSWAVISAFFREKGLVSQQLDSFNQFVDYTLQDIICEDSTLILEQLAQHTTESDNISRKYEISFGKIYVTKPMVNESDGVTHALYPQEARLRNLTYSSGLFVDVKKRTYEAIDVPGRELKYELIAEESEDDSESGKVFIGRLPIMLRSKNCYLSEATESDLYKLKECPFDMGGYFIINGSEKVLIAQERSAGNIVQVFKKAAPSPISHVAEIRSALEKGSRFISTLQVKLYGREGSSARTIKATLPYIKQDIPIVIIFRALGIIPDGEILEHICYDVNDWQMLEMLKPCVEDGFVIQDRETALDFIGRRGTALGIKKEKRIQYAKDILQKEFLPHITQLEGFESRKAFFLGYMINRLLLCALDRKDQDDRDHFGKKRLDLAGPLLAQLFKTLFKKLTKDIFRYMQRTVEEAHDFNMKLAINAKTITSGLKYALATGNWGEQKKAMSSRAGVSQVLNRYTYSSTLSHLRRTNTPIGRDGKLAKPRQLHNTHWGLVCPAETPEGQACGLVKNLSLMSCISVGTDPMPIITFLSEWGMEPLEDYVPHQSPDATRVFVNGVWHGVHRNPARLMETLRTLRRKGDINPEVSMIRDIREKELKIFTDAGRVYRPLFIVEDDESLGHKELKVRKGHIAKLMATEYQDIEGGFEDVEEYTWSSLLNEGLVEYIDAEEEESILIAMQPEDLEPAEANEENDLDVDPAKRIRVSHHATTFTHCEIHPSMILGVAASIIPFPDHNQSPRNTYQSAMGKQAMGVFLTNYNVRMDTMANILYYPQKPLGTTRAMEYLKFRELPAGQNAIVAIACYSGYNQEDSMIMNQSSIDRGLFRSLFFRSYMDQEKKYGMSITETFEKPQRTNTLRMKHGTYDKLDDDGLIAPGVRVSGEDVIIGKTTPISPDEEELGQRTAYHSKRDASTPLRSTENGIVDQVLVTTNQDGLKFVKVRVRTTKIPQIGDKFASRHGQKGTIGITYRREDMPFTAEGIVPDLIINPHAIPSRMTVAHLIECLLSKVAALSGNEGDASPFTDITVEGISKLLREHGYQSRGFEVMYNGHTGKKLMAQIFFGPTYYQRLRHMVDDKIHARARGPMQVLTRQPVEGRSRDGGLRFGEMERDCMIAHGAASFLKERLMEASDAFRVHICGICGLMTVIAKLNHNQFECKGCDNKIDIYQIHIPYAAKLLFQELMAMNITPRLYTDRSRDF

[4] = molecular target: T2, Rpb1 subunit of S. cerevisiae RNA polymerase II (S. cerevisiae, UniProt P04050 1-1733); assay: as above; settings: both partners purified
T2 construct: Rpb1, largest subunit of S. cerevisiae RNA polymerase II, within the assembled polymerase; Seen only as a subunit of Pol II in the structures
T2 sequence (P04050 whole entry): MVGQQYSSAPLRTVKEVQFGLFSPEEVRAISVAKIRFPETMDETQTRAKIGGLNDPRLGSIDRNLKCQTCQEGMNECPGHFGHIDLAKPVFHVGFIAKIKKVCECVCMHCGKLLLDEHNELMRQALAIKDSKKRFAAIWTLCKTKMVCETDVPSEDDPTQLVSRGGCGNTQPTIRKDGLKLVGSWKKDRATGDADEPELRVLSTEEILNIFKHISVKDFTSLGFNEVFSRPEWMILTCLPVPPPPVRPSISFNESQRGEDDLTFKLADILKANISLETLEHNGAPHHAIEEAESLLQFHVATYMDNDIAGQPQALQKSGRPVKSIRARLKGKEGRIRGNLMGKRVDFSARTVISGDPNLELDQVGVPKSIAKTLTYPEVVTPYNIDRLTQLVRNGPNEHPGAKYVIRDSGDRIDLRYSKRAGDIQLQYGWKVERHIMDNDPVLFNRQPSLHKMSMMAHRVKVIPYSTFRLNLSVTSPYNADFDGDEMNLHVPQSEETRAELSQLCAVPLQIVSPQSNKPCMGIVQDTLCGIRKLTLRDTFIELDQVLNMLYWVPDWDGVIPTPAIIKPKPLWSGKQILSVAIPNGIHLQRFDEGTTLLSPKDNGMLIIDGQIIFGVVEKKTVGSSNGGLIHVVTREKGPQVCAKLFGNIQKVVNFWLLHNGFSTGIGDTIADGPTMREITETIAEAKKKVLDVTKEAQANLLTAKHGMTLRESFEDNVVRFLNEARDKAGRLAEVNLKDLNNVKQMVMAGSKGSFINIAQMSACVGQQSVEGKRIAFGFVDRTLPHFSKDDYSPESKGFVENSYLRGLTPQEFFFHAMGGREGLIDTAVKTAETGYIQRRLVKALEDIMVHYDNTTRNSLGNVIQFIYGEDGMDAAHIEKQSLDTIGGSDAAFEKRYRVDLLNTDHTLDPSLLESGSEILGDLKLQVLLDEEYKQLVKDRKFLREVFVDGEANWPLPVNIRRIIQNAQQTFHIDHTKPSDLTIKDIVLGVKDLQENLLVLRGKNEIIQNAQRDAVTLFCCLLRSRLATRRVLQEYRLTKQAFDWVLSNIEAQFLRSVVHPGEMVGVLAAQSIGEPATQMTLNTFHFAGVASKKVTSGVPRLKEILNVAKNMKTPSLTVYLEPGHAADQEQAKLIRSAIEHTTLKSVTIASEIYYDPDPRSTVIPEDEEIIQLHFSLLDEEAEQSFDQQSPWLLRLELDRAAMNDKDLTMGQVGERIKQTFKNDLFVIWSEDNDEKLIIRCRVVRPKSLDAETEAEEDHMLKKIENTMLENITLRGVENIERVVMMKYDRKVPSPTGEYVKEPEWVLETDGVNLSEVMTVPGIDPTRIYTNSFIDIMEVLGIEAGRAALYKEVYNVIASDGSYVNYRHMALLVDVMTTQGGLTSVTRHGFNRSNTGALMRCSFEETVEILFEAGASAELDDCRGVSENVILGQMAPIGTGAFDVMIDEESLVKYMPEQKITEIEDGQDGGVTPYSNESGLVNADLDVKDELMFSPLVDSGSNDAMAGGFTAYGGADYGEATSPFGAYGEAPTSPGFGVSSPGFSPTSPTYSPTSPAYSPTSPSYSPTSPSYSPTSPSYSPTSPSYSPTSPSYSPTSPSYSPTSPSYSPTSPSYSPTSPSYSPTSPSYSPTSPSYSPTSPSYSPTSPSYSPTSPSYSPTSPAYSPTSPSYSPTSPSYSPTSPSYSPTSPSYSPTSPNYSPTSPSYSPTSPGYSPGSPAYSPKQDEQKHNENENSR

[5] = molecular target: B1; assay: cryo-EM structure; Pol II(CPD)-Rad26-Elf1 (Closed state): Elf1 incubated with the Pol II(CPD)-Rad26 complex; 1 uM Pol II, 2 uM Rad26, 1.1 uM scaffold, 5 uM Elf1; 3.1 A; settings: both partners purified

| Binder | Kd [1] [nM] | Kd [2] [nM] | binding result [3] | binding result [4] | binding result [5] |
| --- | --- | --- | --- | --- | --- |
| B1 | 9 | 23 | binds | binds | – |
| B2 | – | – | – | – | binds |

Source: publication PMC10801861, “Elf1 promotes Rad26’s interaction with lesion-arrested Pol II for transcription-coupled repair” (Proceedings of the National Academy of Sciences of the …, 2024)
